Measured values taken from patent US20140179604A1 (U S A REPRESENTED BY THE DEPARTMENT OF VETERANS AFFAIRS, published 2014).
One block for each binder: values may come before it. Non-standard residues stand in square brackets, D forms with d. No end group written: not given here. *: point of attachment. Desaminotyrosyl = O=C(CCc1ccc(O)cc1)*; NMeY = CN[C@@H](Cc1ccc(O)cc1)C(=O)O; Nle = CCCC[C@H](N)C(=O)O; Orn = NCCC[C@H](N)C(=O)O; Abu = CC[C@H](N)C(=O)O

What was measured:
[1] = molecular target: T1, GHRH receptor (membrane receptors of human anterior pituitary cells) (human, UniProt Q02643 23-423); experiment: competition with 125I-JV-1-42, human pituitary membranes
T1 construct: whole, on cells; Native receptor in a membrane fraction of purchased normal human pituitaries, not intact cells; also called hGHRH receptor; human pituitary membrane homogenates
T1 sequence (looked up): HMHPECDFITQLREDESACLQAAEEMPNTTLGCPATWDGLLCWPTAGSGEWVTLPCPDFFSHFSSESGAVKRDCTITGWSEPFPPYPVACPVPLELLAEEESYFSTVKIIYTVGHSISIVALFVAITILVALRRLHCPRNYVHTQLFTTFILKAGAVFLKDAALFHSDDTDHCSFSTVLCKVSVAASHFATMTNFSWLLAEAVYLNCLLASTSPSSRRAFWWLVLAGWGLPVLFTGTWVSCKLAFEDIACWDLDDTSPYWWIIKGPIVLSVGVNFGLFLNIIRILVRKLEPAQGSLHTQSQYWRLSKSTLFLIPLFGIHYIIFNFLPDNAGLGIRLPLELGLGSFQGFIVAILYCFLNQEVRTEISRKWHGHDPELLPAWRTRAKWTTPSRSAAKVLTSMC
Source text: Normal human pituitaries were purchased from the National Hormone and Peptide Program (A. F. Parlow, Los Angeles, County Harbor-UCLA Medical Center, Torrance, Calif.).

[2] = molecular target: T1, GHRH receptor (membrane receptors of …); experiment: competition with 125I-[His1,Nle27]hGHRH(1-32)NH2, human pituitary membranes

B1: P-27401 [Dat^1, D-Ala^2, Gln^8, Orn^12, Abu^15, Orn^21, Nle^27, Asp^28, D-Arg^29]hGHRH(1-29)NH-CH3 (peptide)
peptide: [Desaminotyrosyl][dA]DAIFTQSYR[Orn]VL[Abu]QLSAR[Orn]LLQDI[Nle]D[dR]-NHMe
SMILES: CCCC[C@H](NC(=O)[C@@H](NC(=O)[C@H](CC(=O)O)NC(=O)[C@H](CCC(N)=O)NC(=O)[C@H](CC(C)C)NC(=O)[C@H](CC(C)C)NC(=O)[C@H](CCCN)NC(=O)[C@H](CCCNC(=N)N)NC(=O)[C@H](C)NC(=O)[C@H](CO)NC(=O)[C@H](CC(C)C)NC(=O)[C@H](CCC(N)=O)NC(=O)[C@H](CC)NC(=O)[C@H](CC(C)C)NC(=O)[C@@H](NC(=O)[C@H](CCCN)NC(=O)[C@H](CCCNC(=N)N)NC(=O)[C@H](Cc1ccc(O)cc1)NC(=O)[C@H](CO)NC(=O)[C@H](CCC(N)=O)NC(=O)[C@@H](NC(=O)[C@H](Cc1ccccc1)NC(=O)[C@@H](NC(=O)[C@H](C)NC(=O)[C@H](CC(=O)O)NC(=O)[C@@H](C)NC(=O)CCc1ccc(O)cc1)[C@@H](C)CC)[C@@H](C)O)C(C)C)[C@@H](C)CC)C(=O)N[C@@H](CC(=O)O)C(=O)N[C@H](CCCNC(=N)N)C(=O)NC
notes: also called MR-401
IC50 [1]: 2.74 nM
Relative affinity (Binding potency) vs JI-38 [1]: 1.59 JI-38 = 1
IC50 [2]: 2.6 nM
Relative affinity (Binding potency) compared to JI-38 [2]: 1.05 JI-38 = 1
Relative affinity (Binding potency) compared to hGHRH(1-29) [2]: 2.94 hGHRH(1-29)NH2 = 1

Binder: [NMeY][dA]DAIFTQSYR[Orn]VL[Abu]QLSAR[Orn]LLQDI[Nle]DR-NHEt (also called MR-420; Peptide 28420) [P-28420 [N-Me-Tyr^1, D-Ala^2, Gln^8, Orn^12, Abu^15, Orn^21, Nle^27, Asp^28]hGHRH(1-29)NH-CH2-CH3]
IC50 [1]: 0.52 nM
Relative affinity (Binding potency) vs JI-38 [1]: 8.37 JI-38 = 1
IC50 [2]: 2.7 nM
Relative affinity (Binding potency) compared to JI-38 [2]: 1.01 JI-38 = 1
Relative affinity (Binding potency) compared to hGHRH(1-29) [2]: 2.83 hGHRH(1-29)NH2 = 1

The remaining binders from weak to strong by IC50 [1], led by results:

IC50 [1]: 0.55 nM
Relative affinity (Binding potency) vs JI-38 [1]: 7.91 JI-38 = 1
IC50 [2]: 6.32 nM
Relative affinity (Binding potency) compared to JI-38 [2]: 0.53 JI-38 = 1
Relative affinity (Binding potency) compared to hGHRH(1-29) [2]: 1.21 hGHRH(1-29)NH2 = 1
B2: P-27408 [Dat^1, D-Ala^2, Gln^8, Orn^12, Abu^15, Orn^21, Nle^27, Asp^28]hGHRH(1-29)NH-CH3 (peptide)
peptide: [Desaminotyrosyl][dA]DAIFTQSYR[Orn]VL[Abu]QLSAR[Orn]LLQDI[Nle]DR-NHMe
SMILES: CCCC[C@H](NC(=O)[C@@H](NC(=O)[C@H](CC(=O)O)NC(=O)[C@H](CCC(N)=O)NC(=O)[C@H](CC(C)C)NC(=O)[C@H](CC(C)C)NC(=O)[C@H](CCCN)NC(=O)[C@H](CCCNC(=N)N)NC(=O)[C@H](C)NC(=O)[C@H](CO)NC(=O)[C@H](CC(C)C)NC(=O)[C@H](CCC(N)=O)NC(=O)[C@H](CC)NC(=O)[C@H](CC(C)C)NC(=O)[C@@H](NC(=O)[C@H](CCCN)NC(=O)[C@H](CCCNC(=N)N)NC(=O)[C@H](Cc1ccc(O)cc1)NC(=O)[C@H](CO)NC(=O)[C@H](CCC(N)=O)NC(=O)[C@@H](NC(=O)[C@H](Cc1ccccc1)NC(=O)[C@@H](NC(=O)[C@H](C)NC(=O)[C@H](CC(=O)O)NC(=O)[C@@H](C)NC(=O)CCc1ccc(O)cc1)[C@@H](C)CC)[C@@H](C)O)C(C)C)[C@@H](C)CC)C(=O)N[C@@H](CC(=O)O)C(=O)N[C@@H](CCCNC(=N)N)C(=O)NC
notes: also called MR-408; MR408

IC50 [1]: 0.16 nM
Relative affinity (Binding potency) vs JI-38 [1]: 27.2 JI-38 = 1
IC50 [2]: 0.74 nM
Relative affinity (Binding potency) compared to JI-38 [2]: 3.69 JI-38 = 1
Relative affinity (Binding potency) compared to hGHRH(1-29) [2]: 10.3 hGHRH(1-29)NH2 = 1
Binder: [NMeY][dA]DAIFTQSYR[Orn]VL[Abu]QLSAR[Orn]LLQDI[Nle]DR-NHMe [P-27403 [N-Me-Tyr^1, D-Ala^2, Gln^8, Orn^12, Abu^15, Orn^21, Nle^27, Asp^28]hGHRH(1-29)NH-CH3]
